# Article PMC9482650, “Quantitative fragmentomics allow affinity mapping of interactomes” (Nature Communications, 2022)
# Changes are numbered by the printed parent chain.
# Target: T1, RADIL, Q96JH8
# T1 sequence (Q96JH8 971-1071, limits assumed, looked up): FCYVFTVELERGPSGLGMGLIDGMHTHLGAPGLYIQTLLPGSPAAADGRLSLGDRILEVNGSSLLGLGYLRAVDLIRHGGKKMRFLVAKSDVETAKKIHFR
# Test: holdup assay
# Design: key: below the threshold = too weak to quantify, mostly under pKd 3.1 to 4
# Details: plain residues with an end cap or a label only (N-terminal biotin on a linker: ttds)
row,Binder,pKd
1,"SSRTRRETQL [HPV16-E6, P03126]",3.65

# Target: HTRA1, Q92743
# Test: holdup assay
# Design: key: below the threshold = too weak to quantify, mostly under pKd 3.1 to 4
# Details: plain residues with an end cap or a label only (N-terminal biotin on a linker: ttds)
# Sequence of HTRA1, Q92743 (Q92743 360-477): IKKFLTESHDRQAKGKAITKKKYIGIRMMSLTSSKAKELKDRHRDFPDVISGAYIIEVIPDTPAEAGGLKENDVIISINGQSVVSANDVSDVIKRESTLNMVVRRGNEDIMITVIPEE
row,Binder,pKd
1,"SSRTRRETQL [HPV16-E6, P03126]",below the threshold

# Target: DLG5_1, Q8TDM6
# Test: holdup assay
# Design: key: below the threshold = too weak to quantify, mostly under pKd 3.1 to 4
# Details: plain residues with an end cap or a label only (N-terminal biotin on a linker: ttds)
# Sequence of DLG5_1, Q8TDM6 (Q8TDM6 617-713): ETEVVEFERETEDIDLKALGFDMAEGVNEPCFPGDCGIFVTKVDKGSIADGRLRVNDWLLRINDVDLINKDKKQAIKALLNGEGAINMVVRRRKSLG
row,Binder,pKd
1,"SSRTRRETQL [HPV16-E6, P03126]",below the threshold

# Target: T2, SNTG2, Q9NY99
# T2 sequence (Q9NY99 68-166, limits assumed, looked up): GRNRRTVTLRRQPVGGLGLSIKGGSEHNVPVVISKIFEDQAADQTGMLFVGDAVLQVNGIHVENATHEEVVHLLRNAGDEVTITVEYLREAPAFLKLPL
# Test: holdup assay
# Design: key: below the threshold = too weak to quantify, mostly under pKd 3.1 to 4
# Details: plain residues with an end cap or a label only (N-terminal biotin on a linker: ttds)
row,Binder,pKd
1,"SSRTRRETQL [HPV16-E6, P03126]",4.45

# Target: T3, MPP2, Q14168
# T3 sequence (Q14168 180-250, limits assumed, looked up): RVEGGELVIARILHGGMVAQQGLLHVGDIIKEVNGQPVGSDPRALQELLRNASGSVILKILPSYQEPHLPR
# Test: holdup assay
# Design: key: below the threshold = too weak to quantify, mostly under pKd 3.1 to 4
# Details: plain residues with an end cap or a label only (N-terminal biotin on a linker: ttds)
row,Binder,pKd
1,"SSRTRRETQL [HPV16-E6, P03126]",below the threshold

# Target: T4, PARD3B_1, Q8TEW8
# T4 sequence (Q8TEW8 196-299, limits assumed, looked up): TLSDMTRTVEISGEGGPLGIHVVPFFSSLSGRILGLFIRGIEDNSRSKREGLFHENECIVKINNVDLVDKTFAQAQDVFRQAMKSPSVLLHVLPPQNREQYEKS
# Test: holdup assay
# Design: key: below the threshold = too weak to quantify, mostly under pKd 3.1 to 4
# Details: plain residues with an end cap or a label only (N-terminal biotin on a linker: ttds)
row,Binder,pKd
1,"SSRTRRETQL [HPV16-E6, P03126]",below the threshold

# Target: Inadl_9, Q8NI35
# Test: holdup assay
# Design: key: below the threshold = too weak to quantify, mostly under pKd 3.1 to 4
# Details: plain residues with an end cap or a label only (N-terminal biotin on a linker: ttds)
# Sequence of Inadl_9, Q8NI35 (Q8NI35 1530-1615): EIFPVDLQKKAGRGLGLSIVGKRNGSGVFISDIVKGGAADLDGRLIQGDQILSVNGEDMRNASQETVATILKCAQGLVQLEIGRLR
row,Binder,pKd
1,"SSRTRRETQL [HPV16-E6, P03126]",below the threshold

# Target: DLG4_3, P78352
# Test: holdup assay
# Design: key: below the threshold = too weak to quantify, mostly under pKd 3.1 to 4
# Details: plain residues with an end cap or a label only (N-terminal biotin on a linker: ttds)
# Sequence of DLG4_3, P78352 (P78352 306-403): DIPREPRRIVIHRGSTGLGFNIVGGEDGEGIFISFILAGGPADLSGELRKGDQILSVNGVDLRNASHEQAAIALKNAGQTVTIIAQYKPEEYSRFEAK
row,Binder,pKd
1,"SSRTRRETQL [HPV16-E6, P03126]",5.06

# Target: T5, SNTA1, Q13424
# T5 sequence (Q13424 82-180, limits assumed, looked up): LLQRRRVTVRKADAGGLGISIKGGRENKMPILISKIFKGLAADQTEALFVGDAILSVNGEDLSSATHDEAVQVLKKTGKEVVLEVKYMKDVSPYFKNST
# Test: holdup assay
# Design: key: below the threshold = too weak to quantify, mostly under pKd 3.1 to 4
# Details: plain residues with an end cap or a label only (N-terminal biotin on a linker: ttds)
row,Binder,pKd
1,"SSRTRRETQL [HPV16-E6, P03126]",4.75

# Target: T6, ARHGAP21, Q5T5U3
# T6 sequence (Q5T5U3 45-169, limits assumed, looked up): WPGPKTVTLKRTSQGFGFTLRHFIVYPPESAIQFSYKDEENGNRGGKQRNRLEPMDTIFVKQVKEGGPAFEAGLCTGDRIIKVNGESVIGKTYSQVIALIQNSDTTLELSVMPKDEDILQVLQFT
# Test: holdup assay
# Design: key: below the threshold = too weak to quantify, mostly under pKd 3.1 to 4
# Details: plain residues with an end cap or a label only (N-terminal biotin on a linker: ttds)
row,Binder,pKd
1,"SSRTRRETQL [HPV16-E6, P03126]",below the threshold

# Target: FRMPD3, Q5JV73
# Test: holdup assay
# Design: key: below the threshold = too weak to quantify, mostly under pKd 3.1 to 4
# Details: plain residues with an end cap or a label only (N-terminal biotin on a linker: ttds)
# Sequence of FRMPD3, Q5JV73 (Q5JV73 12-100): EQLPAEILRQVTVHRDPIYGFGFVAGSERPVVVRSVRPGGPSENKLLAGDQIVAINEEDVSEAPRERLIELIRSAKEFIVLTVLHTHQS
row,Binder,pKd
1,"SSRTRRETQL [HPV16-E6, P03126]",below the threshold

# Target: DLG2_2, Q15700
# Test: holdup assay
# Design: key: below the threshold = too weak to quantify, mostly under pKd 3.1 to 4
# Details: plain residues with an end cap or a label only (N-terminal biotin on a linker: ttds)
row,Binder,pKd
1,"SSRTRRETQL [HPV16-E6, P03126]",4.93

# Target: MAGI2_5, Q86UL8
# Test: holdup assay
# Design: key: below the threshold = too weak to quantify, mostly under pKd 3.1 to 4
# Details: plain residues with an end cap or a label only (N-terminal biotin on a linker: ttds)
# Sequence of MAGI2_5, Q86UL8 (Q86UL8 915-1017): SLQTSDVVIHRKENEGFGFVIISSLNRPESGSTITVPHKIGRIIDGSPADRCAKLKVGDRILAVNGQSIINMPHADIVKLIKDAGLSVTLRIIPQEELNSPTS
row,Binder,pKd
1,"SSRTRRETQL [HPV16-E6, P03126]",3.93

# Target: GRIP2_5, Q9C0E4
# Test: holdup assay
# Design: key: below the threshold = too weak to quantify, mostly under pKd 3.1 to 4
# Details: plain residues with an end cap or a label only (N-terminal biotin on a linker: ttds)
# Sequence of GRIP2_5, Q9C0E4 (Q9C0E4 544-642): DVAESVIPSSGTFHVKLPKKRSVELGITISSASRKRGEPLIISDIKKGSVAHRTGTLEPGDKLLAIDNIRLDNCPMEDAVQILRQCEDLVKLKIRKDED
row,Binder,pKd
1,"SSRTRRETQL [HPV16-E6, P03126]",below the threshold

# Target: T7, DLG3_2, Q92796
# T7 sequence (Q92796 221-321, limits assumed, looked up): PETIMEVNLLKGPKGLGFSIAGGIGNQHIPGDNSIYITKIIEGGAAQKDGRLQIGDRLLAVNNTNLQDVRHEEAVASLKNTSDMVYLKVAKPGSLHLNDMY
# Test: holdup assay
# Design: key: below the threshold = too weak to quantify, mostly under pKd 3.1 to 4
# Details: plain residues with an end cap or a label only (N-terminal biotin on a linker: ttds)
row,Binder,pKd
1,"SSRTRRETQL [HPV16-E6, P03126]",4.8

# Target: T8, APBA1_2, Q02410
# T8 sequence (Q02410 742-832, limits assumed, looked up): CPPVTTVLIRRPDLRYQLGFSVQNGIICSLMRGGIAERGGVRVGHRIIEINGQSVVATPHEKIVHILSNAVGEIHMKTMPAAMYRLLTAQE
# Test: holdup assay
# Design: key: below the threshold = too weak to quantify, mostly under pKd 3.1 to 4
# Details: plain residues with an end cap or a label only (N-terminal biotin on a linker: ttds)
row,Binder,pKd
1,"SSRTRRETQL [HPV16-E6, P03126]",below the threshold

# Target: DLG2_3, Q15700
# Test: holdup assay
# Design: key: below the threshold = too weak to quantify, mostly under pKd 3.1 to 4
# Details: plain residues with an end cap or a label only (N-terminal biotin on a linker: ttds)
row,Binder,pKd
1,"SSRTRRETQL [HPV16-E6, P03126]",5.1

# Target: T9, MPP6, Q9NZW5
# T9 sequence (Q9NZW5 125-219, limits assumed, looked up): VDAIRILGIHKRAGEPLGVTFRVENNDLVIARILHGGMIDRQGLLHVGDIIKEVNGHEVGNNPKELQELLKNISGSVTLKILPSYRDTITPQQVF
# Test: holdup assay
# Design: key: below the threshold = too weak to quantify, mostly under pKd 3.1 to 4
# Details: plain residues with an end cap or a label only (N-terminal biotin on a linker: ttds)
row,Binder,pKd
1,"SSRTRRETQL [HPV16-E6, P03126]",3.58

# Target: T10, FRMPD1, Q5SYB0
# T10 sequence (Q5SYB0 52-145, limits assumed, looked up): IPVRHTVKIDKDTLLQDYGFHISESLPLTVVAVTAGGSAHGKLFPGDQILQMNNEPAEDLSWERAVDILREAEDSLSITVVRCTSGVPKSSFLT
# Test: holdup assay
# Design: key: below the threshold = too weak to quantify, mostly under pKd 3.1 to 4
# Details: plain residues with an end cap or a label only (N-terminal biotin on a linker: ttds)
row,Binder,pKd
1,"SSRTRRETQL [HPV16-E6, P03126]",below the threshold

# Target: IL16_3, Q14005
# Test: holdup assay
# Design: key: below the threshold = too weak to quantify, mostly under pKd 3.1 to 4
# Details: plain residues with an end cap or a label only (N-terminal biotin on a linker: ttds)
# Sequence of IL16_3, Q14005 (Q14005 1107-1207): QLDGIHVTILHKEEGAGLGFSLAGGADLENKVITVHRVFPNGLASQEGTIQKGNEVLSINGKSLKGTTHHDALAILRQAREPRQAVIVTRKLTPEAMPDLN
row,Binder,pKd
1,"SSRTRRETQL [HPV16-E6, P03126]",below the threshold

# Target: T11, APBA2_2, Q99767
# T11 sequence (Q99767 654-744, limits assumed, looked up): T8 sequence (Q02410 742-832, limits assumed, looked up) with R10K, R15K, P59A, H65Q, I66A, A70S, Y84F, A89G
# Test: holdup assay
# Design: key: below the threshold = too weak to quantify, mostly under pKd 3.1 to 4
# Details: plain residues with an end cap or a label only (N-terminal biotin on a linker: ttds)
row,Binder,pKd
1,"SSRTRRETQL [HPV16-E6, P03126]",below the threshold

# Target: PICK1, Q9NRD5
# Test: holdup assay
# Design: key: below the threshold = too weak to quantify, mostly under pKd 3.1 to 4
# Details: plain residues with an end cap or a label only (N-terminal biotin on a linker: ttds)
# Sequence of PICK1, Q9NRD5 (Q9NRD5 17-115): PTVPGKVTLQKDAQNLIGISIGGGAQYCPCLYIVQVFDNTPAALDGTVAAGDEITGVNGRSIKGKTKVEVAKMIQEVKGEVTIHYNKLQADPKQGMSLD
row,Binder,pKd
1,"SSRTRRETQL [HPV16-E6, P03126]",below the threshold

# Target: T12, SIPA1L2, Q9P2F8
# T12 sequence (Q9P2F8 945-1036, limits assumed, looked up): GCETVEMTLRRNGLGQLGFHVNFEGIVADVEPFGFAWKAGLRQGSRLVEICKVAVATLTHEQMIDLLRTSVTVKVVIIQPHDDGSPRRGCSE
# Test: holdup assay
# Design: key: below the threshold = too weak to quantify, mostly under pKd 3.1 to 4
# Details: plain residues with an end cap or a label only (N-terminal biotin on a linker: ttds)
row,Binder,pKd
1,"SSRTRRETQL [HPV16-E6, P03126]",below the threshold

# Target: FRMPD2_2, Q68DX3
# Test: holdup assay
# Design: key: below the threshold = too weak to quantify, mostly under pKd 3.1 to 4
# Details: plain residues with an end cap or a label only (N-terminal biotin on a linker: ttds)
# Sequence of FRMPD2_2, Q68DX3 (Q68DX3 944-1038): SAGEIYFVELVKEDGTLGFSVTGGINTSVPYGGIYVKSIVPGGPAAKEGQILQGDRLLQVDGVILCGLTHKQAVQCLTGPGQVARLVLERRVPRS
row,Binder,pKd
1,"SSRTRRETQL [HPV16-E6, P03126]",below the threshold

# Target: LIMK2, P53671
# Test: holdup assay
# Design: key: below the threshold = too weak to quantify, mostly under pKd 3.1 to 4
# Details: plain residues with an end cap or a label only (N-terminal biotin on a linker: ttds)
# Sequence of LIMK2, P53671 (P53671 143-248): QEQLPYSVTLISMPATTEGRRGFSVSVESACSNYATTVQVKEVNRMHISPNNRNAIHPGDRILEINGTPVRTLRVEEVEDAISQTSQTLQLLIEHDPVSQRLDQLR
row,Binder,pKd
1,"SSRTRRETQL [HPV16-E6, P03126]",below the threshold
